For one test, the target named is T1, human APJ receptor (human, UniProt P35414 1-380).
T1 sequence (looked up): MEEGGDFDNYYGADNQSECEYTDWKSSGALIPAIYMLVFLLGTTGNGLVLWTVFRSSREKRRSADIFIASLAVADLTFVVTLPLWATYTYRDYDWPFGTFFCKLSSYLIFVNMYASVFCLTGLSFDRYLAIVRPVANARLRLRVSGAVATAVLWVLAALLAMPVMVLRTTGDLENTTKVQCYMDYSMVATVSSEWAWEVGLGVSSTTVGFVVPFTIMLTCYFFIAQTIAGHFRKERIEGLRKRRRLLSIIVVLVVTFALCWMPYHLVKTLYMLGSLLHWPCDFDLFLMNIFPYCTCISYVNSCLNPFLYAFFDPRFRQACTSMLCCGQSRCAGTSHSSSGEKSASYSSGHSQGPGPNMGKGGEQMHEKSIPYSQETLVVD
The experiment in a line: cell-based or functional assay.

In a further test the target is T2, rat APJ receptor (rat, UniProt Q9JHG3 1-377).
T2 sequence (looked up): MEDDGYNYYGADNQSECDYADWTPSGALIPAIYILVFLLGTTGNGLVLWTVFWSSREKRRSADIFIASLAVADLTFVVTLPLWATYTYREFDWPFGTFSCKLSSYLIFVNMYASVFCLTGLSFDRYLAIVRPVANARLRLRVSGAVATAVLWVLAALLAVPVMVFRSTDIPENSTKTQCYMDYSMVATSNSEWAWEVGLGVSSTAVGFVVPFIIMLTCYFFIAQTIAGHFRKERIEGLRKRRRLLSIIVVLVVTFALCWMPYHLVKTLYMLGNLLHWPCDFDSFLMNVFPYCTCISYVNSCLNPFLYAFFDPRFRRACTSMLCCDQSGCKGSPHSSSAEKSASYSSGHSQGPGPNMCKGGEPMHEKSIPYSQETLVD
The test is described as follows: cell-based or functional assay.

Non-standard residues stand in square brackets, D forms with d. dBip = N[C@H](Cc1ccc(-c2ccccc2)cc1)C(=O)O; Oic = O=C(O)[C@@H]1C[C@@H]2CCCC[C@@H]2N1; Phe(4-Cl) = N[C@@H](Cc1ccc(Cl)cc1)C(=O)O; Phe(4-I) = N[C@@H](Cc1ccc(I)cc1)C(=O)O; NMehArg = CN[C@@H](CCCCNC(=N)N)C(=O)O; NMeR = CN[C@@H](CCCNC(=N)N)C(=O)O; hArg = N=C(N)NCCCC[C@H](N)C(=O)O; Cha = N[C@@H](CC1CCCCC1)C(=O)O; NMeL = CN[C@@H](CC(C)C)C(=O)O; Nle = CCCC[C@H](N)C(=O)O

13 molecules from patent US10941182 (Amgen, dated 2021) can be followed below.

B1: SEQ ID NO: 84 (peptide)
peptide: Ac-[hArg][dR]Q[hArg]P[dR][NMeL]SHKE[Oic][Phe(4-I)]P[dBip]-OH
SMILES: CC(=O)N[C@@H](CCCCNC(=N)N)C(=O)N[C@H](CCCNC(=N)N)C(=O)N[C@@H](CCC(N)=O)C(=O)N[C@@H](CCCCNC(=N)N)C(=O)N1CCC[C@H]1C(=O)N[C@H](CCCNC(=N)N)C(=O)N(C)[C@@H](CC(C)C)C(=O)N[C@@H](CO)C(=O)N[C@@H](Cc1c[nH]cn1)C(=O)N[C@@H](CCCCN)C(=O)N[C@@H](CCC(=O)O)C(=O)N1[C@H](C(=O)N[C@@H](Cc2ccc(I)cc2)C(=O)N2CCC[C@H]2C(=O)N[C@H](Cc2ccc(-c3ccccc3)cc2)C(=O)O)C[C@@H]2CCCC[C@@H]21
Turning to B1, in the test with human APJ receptor, the “EC50 Human APJ Receptor” value amounted to 0.0181 µM. Further, the “EC50 Rat APJ Receptor” value with rat APJ receptor was determined as 0.0893 µM.

B2: SEQ ID NO: 61 (peptide)
peptide: Ac-Q[hArg]P[NMeR][Cha]SHKG[Oic][Nle]P[Phe(4-Cl)]-OH
SMILES: CCCC[C@H](NC(=O)[C@@H]1C[C@@H]2CCCC[C@@H]2N1C(=O)CNC(=O)[C@H](CCCCN)NC(=O)[C@H](Cc1c[nH]cn1)NC(=O)[C@H](CO)NC(=O)[C@H](CC1CCCCC1)NC(=O)[C@H](CCCNC(=N)N)N(C)C(=O)[C@@H]1CCCN1C(=O)[C@H](CCCCNC(=N)N)NC(=O)[C@H](CCC(N)=O)NC(C)=O)C(=O)N1CCC[C@H]1C(=O)N[C@@H](Cc1ccc(Cl)cc1)C(=O)O
For the molecule B2, the “EC50 Human APJ Receptor” value with human APJ receptor turned out to be 0.000159 µM. Besides, in the test with rat APJ receptor, the “EC50 Rat APJ Receptor” value is 0.000189 µM.

B3: SEQ ID NO: 85 (peptide)
peptide: Ac-[hArg][dR]Q[hArg]P[dR][NMeL]SHKGE[Phe(4-I)]P[dBip]-OH
SMILES: CC(=O)N[C@@H](CCCCNC(=N)N)C(=O)N[C@H](CCCNC(=N)N)C(=O)N[C@@H](CCC(N)=O)C(=O)N[C@@H](CCCCNC(=N)N)C(=O)N1CCC[C@H]1C(=O)N[C@H](CCCNC(=N)N)C(=O)N(C)[C@@H](CC(C)C)C(=O)N[C@@H](CO)C(=O)N[C@@H](Cc1c[nH]cn1)C(=O)N[C@@H](CCCCN)C(=O)NCC(=O)N[C@@H](CCC(=O)O)C(=O)N[C@@H](Cc1ccc(I)cc1)C(=O)N1CCC[C@H]1C(=O)N[C@H](Cc1ccc(-c2ccccc2)cc1)C(=O)O
Consider B3, for which the “EC50 Human APJ Receptor” value with human APJ receptor is more than 4.17 µM. Also, in the test with rat APJ receptor, the “EC50 Rat APJ Receptor” value was more than 4.17 µM.

B4: SEQ ID NO: 86 (peptide)
peptide: Ac-[hArg][dR]Q[hArg]P[dR][NMeL]SHKG[Oic]EP[dBip]-OH
SMILES: CC(=O)N[C@@H](CCCCNC(=N)N)C(=O)N[C@H](CCCNC(=N)N)C(=O)N[C@@H](CCC(N)=O)C(=O)N[C@@H](CCCCNC(=N)N)C(=O)N1CCC[C@H]1C(=O)N[C@H](CCCNC(=N)N)C(=O)N(C)[C@@H](CC(C)C)C(=O)N[C@@H](CO)C(=O)N[C@@H](Cc1c[nH]cn1)C(=O)N[C@@H](CCCCN)C(=O)NCC(=O)N1[C@H](C(=O)N[C@@H](CCC(=O)O)C(=O)N2CCC[C@H]2C(=O)N[C@H](Cc2ccc(-c3ccccc3)cc2)C(=O)O)C[C@@H]2CCCC[C@@H]21
In the case of B4, the “EC50 Human APJ Receptor” value with human APJ receptor is more than 4.17 µM. Besides, the “EC50 Rat APJ Receptor” value in the test with rat APJ receptor was more than 4.17 µM.

With Ac-[hArg][dR]QEP[dR][NMeL]SHKG[Oic][Phe(4-I)]P[dBip]-OH [SEQ ID NO: 77], the “EC50 Human APJ Receptor” value with human APJ receptor came to 0.00492 µM. Moreover, the “EC50 Rat APJ Receptor” value with rat APJ receptor worked out at 0.00284 µM.

B5: SEQ ID NO: 81 (peptide)
peptide: Ac-[hArg][dR]Q[hArg]P[dR][NMeL]EHKG[Oic][Phe(4-I)]P[dBip]-OH
SMILES: CC(=O)N[C@@H](CCCCNC(=N)N)C(=O)N[C@H](CCCNC(=N)N)C(=O)N[C@@H](CCC(N)=O)C(=O)N[C@@H](CCCCNC(=N)N)C(=O)N1CCC[C@H]1C(=O)N[C@H](CCCNC(=N)N)C(=O)N(C)[C@@H](CC(C)C)C(=O)N[C@@H](CCC(=O)O)C(=O)N[C@@H](Cc1c[nH]cn1)C(=O)N[C@@H](CCCCN)C(=O)NCC(=O)N1[C@H](C(=O)N[C@@H](Cc2ccc(I)cc2)C(=O)N2CCC[C@H]2C(=O)N[C@H](Cc2ccc(-c3ccccc3)cc2)C(=O)O)C[C@@H]2CCCC[C@@H]21
B5: in the test with human APJ receptor, the “EC50 Human APJ Receptor” value came out at 0.0838 µM. Besides, in the test with rat APJ receptor, the “EC50 Rat APJ Receptor” value was 0.0706 µM.

B6: SEQ ID NO: 82 (peptide)
peptide: Ac-[hArg][dR]Q[hArg]P[dR][NMeL]SEKG[Oic][Phe(4-I)]P[dBip]-OH
SMILES: CC(=O)N[C@@H](CCCCNC(=N)N)C(=O)N[C@H](CCCNC(=N)N)C(=O)N[C@@H](CCC(N)=O)C(=O)N[C@@H](CCCCNC(=N)N)C(=O)N1CCC[C@H]1C(=O)N[C@H](CCCNC(=N)N)C(=O)N(C)[C@@H](CC(C)C)C(=O)N[C@@H](CO)C(=O)N[C@@H](CCC(=O)O)C(=O)N[C@@H](CCCCN)C(=O)NCC(=O)N1[C@H](C(=O)N[C@@H](Cc2ccc(I)cc2)C(=O)N2CCC[C@H]2C(=O)N[C@H](Cc2ccc(-c3ccccc3)cc2)C(=O)O)C[C@@H]2CCCC[C@@H]21
Regarding B6, in the test with human APJ receptor, the “EC50 Human APJ Receptor” value was 0.0232 µM. In addition, in the test with rat APJ receptor, the “EC50 Rat APJ Receptor” value came out at 0.0539 µM.

B7: SEQ ID NO: 87 (peptide)
peptide: Ac-[hArg][dR]Q[hArg]P[dR][NMeL]SHKG[Oic][Phe(4-I)]E[dBip]-OH
SMILES: CC(=O)N[C@@H](CCCCNC(=N)N)C(=O)N[C@H](CCCNC(=N)N)C(=O)N[C@@H](CCC(N)=O)C(=O)N[C@@H](CCCCNC(=N)N)C(=O)N1CCC[C@H]1C(=O)N[C@H](CCCNC(=N)N)C(=O)N(C)[C@@H](CC(C)C)C(=O)N[C@@H](CO)C(=O)N[C@@H](Cc1c[nH]cn1)C(=O)N[C@@H](CCCCN)C(=O)NCC(=O)N1[C@H](C(=O)N[C@@H](Cc2ccc(I)cc2)C(=O)N[C@@H](CCC(=O)O)C(=O)N[C@H](Cc2ccc(-c3ccccc3)cc2)C(=O)O)C[C@@H]2CCCC[C@@H]21
On to B7, for which, in the test with human APJ receptor, the “EC50 Human APJ Receptor” value was 0.0527 µM. The “EC50 Rat APJ Receptor” value in the test with rat APJ receptor came out at 0.0589 µM.

B8: SEQ ID NO: 79 (peptide)
peptide: Ac-[hArg][dR]Q[hArg]PE[NMeL]SHKG[Oic][Phe(4-I)]P[dBip]-OH
SMILES: CC(=O)N[C@@H](CCCCNC(=N)N)C(=O)N[C@H](CCCNC(=N)N)C(=O)N[C@@H](CCC(N)=O)C(=O)N[C@@H](CCCCNC(=N)N)C(=O)N1CCC[C@H]1C(=O)N[C@@H](CCC(=O)O)C(=O)N(C)[C@@H](CC(C)C)C(=O)N[C@@H](CO)C(=O)N[C@@H](Cc1c[nH]cn1)C(=O)N[C@@H](CCCCN)C(=O)NCC(=O)N1[C@H](C(=O)N[C@@H](Cc2ccc(I)cc2)C(=O)N2CCC[C@H]2C(=O)N[C@H](Cc2ccc(-c3ccccc3)cc2)C(=O)O)C[C@@H]2CCCC[C@@H]21
With B8, the “EC50 Human APJ Receptor” value with human APJ receptor stood at 0.000678 µM. Besides, the “EC50 Rat APJ Receptor” value with rat APJ receptor turned out to be 0.000341 µM.

Take Ac-E[dR]Q[hArg]P[dR][NMeL]SHKG[Oic][Phe(4-I)]P[dBip]-OH [SEQ ID NO: 75]: in the test with human APJ receptor, the “EC50 Human APJ Receptor” value was 0.00156 µM. The “EC50 Rat APJ Receptor” value in the test with rat APJ receptor came out at 0.00108 µM.

B9: SEQ ID NO: 80 (peptide)
peptide: Ac-[hArg][dR]Q[hArg]P[dR]ESHKG[Oic][Phe(4-I)]P[dBip]-OH
SMILES: CC(=O)N[C@@H](CCCCNC(=N)N)C(=O)N[C@H](CCCNC(=N)N)C(=O)N[C@@H](CCC(N)=O)C(=O)N[C@@H](CCCCNC(=N)N)C(=O)N1CCC[C@H]1C(=O)N[C@H](CCCNC(=N)N)C(=O)N[C@@H](CCC(=O)O)C(=O)N[C@@H](CO)C(=O)N[C@@H](Cc1c[nH]cn1)C(=O)N[C@@H](CCCCN)C(=O)NCC(=O)N1[C@H](C(=O)N[C@@H](Cc2ccc(I)cc2)C(=O)N2CCC[C@H]2C(=O)N[C@H](Cc2ccc(-c3ccccc3)cc2)C(=O)O)C[C@@H]2CCCC[C@@H]21
In the case of B9, the “EC50 Human APJ Receptor” value with human APJ receptor came to 0.127 µM. Also, the “EC50 Rat APJ Receptor” value with rat APJ receptor stood at 0.0687 µM.

B10: SEQ ID NO: 83 (peptide)
peptide: Ac-[hArg][dR]Q[hArg]P[dR][NMeL]SHEG[Oic][Phe(4-I)]P[dBip]-OH
SMILES: CC(=O)N[C@@H](CCCCNC(=N)N)C(=O)N[C@H](CCCNC(=N)N)C(=O)N[C@@H](CCC(N)=O)C(=O)N[C@@H](CCCCNC(=N)N)C(=O)N1CCC[C@H]1C(=O)N[C@H](CCCNC(=N)N)C(=O)N(C)[C@@H](CC(C)C)C(=O)N[C@@H](CO)C(=O)N[C@@H](Cc1c[nH]cn1)C(=O)N[C@@H](CCC(=O)O)C(=O)NCC(=O)N1[C@H](C(=O)N[C@@H](Cc2ccc(I)cc2)C(=O)N2CCC[C@H]2C(=O)N[C@H](Cc2ccc(-c3ccccc3)cc2)C(=O)O)C[C@@H]2CCCC[C@@H]21
Regarding B10, the “EC50 Human APJ Receptor” value with human APJ receptor is 0.0545 µM. The “EC50 Rat APJ Receptor” value with rat APJ receptor worked out at 0.0847 µM.

B11: SEQ ID NO: 74 (peptide)
peptide: Ac-Q[hArg][NMehArg]LSHKGP[Nle]P[Phe(4-Cl)]-OH
SMILES: CCCC[C@H](NC(=O)[C@@H]1CCCN1C(=O)CNC(=O)[C@H](CCCCN)NC(=O)[C@H](Cc1c[nH]cn1)NC(=O)[C@H](CO)NC(=O)[C@H](CC(C)C)NC(=O)[C@H](CCCCNC(=N)N)N(C)C(=O)[C@H](CCCCNC(=N)N)NC(=O)[C@H](CCC(N)=O)NC(C)=O)C(=O)N1CCC[C@H]1C(=O)N[C@@H](Cc1ccc(Cl)cc1)C(=O)O
With B11, the “EC50 Human APJ Receptor” value in the test with human APJ receptor amounted to 0.00048 µM. Besides, the “EC50 Rat APJ Receptor” value in the test with rat APJ receptor was determined as 0.0173 µM.
